# Measurements taken from patent publication US20140087995A1 (published 2014).
# Numbered stars: 1 amine (or outer) side, 2 acyl side, 3 side chain; on linkers, the order of the positions; unused ones are H or OH. Bridge positions count the residues as written; N and C are the ends. Side chains are listed from the residue outwards. Ends that are not written are not given here. * marks the point of attachment. C20 diacid = O=C(O)CCCCCCCCCCCCCCCCCCC(=O)*; γGlu = O=C(O)[C@H](CCC(=O)[*:2])N[*:1]; AEEA = NCCOCCOCC(=O)O
# T1: human calcitonin receptor (human, UniProt P30988 25-474)
# T1 construct: whole, on cells; also called hCTR; hCT
# T1 sequence (looked up): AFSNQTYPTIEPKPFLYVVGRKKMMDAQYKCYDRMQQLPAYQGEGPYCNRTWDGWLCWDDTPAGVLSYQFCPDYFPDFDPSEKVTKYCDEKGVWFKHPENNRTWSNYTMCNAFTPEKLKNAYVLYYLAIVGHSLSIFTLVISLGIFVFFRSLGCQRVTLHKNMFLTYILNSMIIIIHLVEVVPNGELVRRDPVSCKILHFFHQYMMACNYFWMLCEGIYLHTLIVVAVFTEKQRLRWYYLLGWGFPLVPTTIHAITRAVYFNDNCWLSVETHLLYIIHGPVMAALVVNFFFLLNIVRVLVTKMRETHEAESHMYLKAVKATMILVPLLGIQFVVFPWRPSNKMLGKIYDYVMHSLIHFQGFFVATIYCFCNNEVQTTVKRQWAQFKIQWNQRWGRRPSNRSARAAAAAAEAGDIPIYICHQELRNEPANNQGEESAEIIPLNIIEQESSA
# Experiments:
# [1] = target: T1, human calcitonin receptor; assay: ratio of IC50 at hCTR to IC50 at the human amylin receptor (reference)
# In short: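 Competition binding by SPA with cell membranes (35 ng/μL) and SPA beads in 50 mM Hepes pH 7.4 with 1 mM CaCl2, 5 mM MgCl2, 0.1% OA and 0.02% Tween20. Incubated 120 min at 25 °C with shaking, then counted.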
# [2] = target: T1, human calcitonin receptor; assay: SPA competition binding, membranes with human calcitonin receptor, displacement of 125I-calcitonin (Assay VII)
# In short: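 BHK hCTR membranes 35 ng/μL + SPA beads 0.05 mg/well; buffer 50 mM Hepes pH 7.4, 1 mM CaCl2, 5 mM MgCl₂, 0.1% OA, 0.02% Tween20. 120 min, 25° C., shaking. Scintillation count; IC50 by one-site binding competition.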
Binder,Ratio hCT/hAmylin binding [1],IC50 [2] [nM]
"{C20 diacid-γGlu}-KCNTATCATQRLAHFLRHSSPNFGAIPSSTNVGSETY-NH2 (disulfide 2-7; SMILES CC[C@H](C)[C@H](NC(=O)[C@H](C)NC(=O)CNC(=O)[C@H](Cc1ccccc1)NC(=O)[C@H](CC(N)=O)NC(=O)[C@@H]1CCCN1C(=O)[C@H](CO)NC(=O)[C@H](CO)NC(=O)[C@H](Cc1c[nH]cn1)NC(=O)[C@H](CCCNC(=N)N)NC(=O)[C@H](CC(C)C)NC(=O)[C@H](Cc1ccccc1)NC(=O)[C@H](Cc1c[nH]cn1)NC(=O)[C@H](C)NC(=O)[C@H](CC(C)C)NC(=O)[C@H](CCCNC(=N)N)NC(=O)[C@H](CCC(N)=O)NC(=O)[C@@H](NC(=O)[C@H](C)NC(=O)[C@@H]1CSSC[C@H](NC(=O)[C@H](CCCCN)NC(=O)CC[C@H](NC(=O)CCCCCCCCCCCCCCCCCCC(=O)O)C(=O)O)C(=O)N[C@@H](CC(N)=O)C(=O)N[C@@H]([C@@H](C)O)C(=O)N[C@@H](C)C(=O)N[C@@H]([C@@H](C)O)C(=O)N1)[C@@H](C)O)C(=O)N1CCC[C@H]1C(=O)N[C@@H](CO)C(=O)N[C@@H](CO)C(=O)N[C@H](C(=O)N[C@@H](CC(N)=O)C(=O)N[C@H](C(=O)NCC(=O)N[C@@H](CO)C(=O)N[C@@H](CCC(=O)O)C(=O)N[C@H](C(=O)N[C@@H](Cc1ccc(O)cc1)C(N)=O)[C@@H](C)O)C(C)C)[C@@H](C)O, also called compound 30)",23.6,21.6
"{C20 diacid-γGlu-γGlu}-KCNTATCATQRLAEFLRHSSPNFGAIPSSTNVGSNTP-NH2 (disulfide 2-7; SMILES CC[C@H](C)[C@H](NC(=O)[C@H](C)NC(=O)CNC(=O)[C@H](Cc1ccccc1)NC(=O)[C@H](CC(N)=O)NC(=O)[C@@H]1CCCN1C(=O)[C@H](CO)NC(=O)[C@H](CO)NC(=O)[C@H](Cc1c[nH]cn1)NC(=O)[C@H](CCCNC(=N)N)NC(=O)[C@H](CC(C)C)NC(=O)[C@H](Cc1ccccc1)NC(=O)[C@H](CCC(=O)O)NC(=O)[C@H](C)NC(=O)[C@H](CC(C)C)NC(=O)[C@H](CCCNC(=N)N)NC(=O)[C@H](CCC(N)=O)NC(=O)[C@@H](NC(=O)[C@H](C)NC(=O)[C@@H]1CSSC[C@H](NC(=O)[C@H](CCCCN)NC(=O)CC[C@H](NC(=O)CC[C@H](NC(=O)CCCCCCCCCCCCCCCCCCC(=O)O)C(=O)O)C(=O)O)C(=O)N[C@@H](CC(N)=O)C(=O)N[C@@H]([C@@H](C)O)C(=O)N[C@@H](C)C(=O)N[C@@H]([C@@H](C)O)C(=O)N1)[C@@H](C)O)C(=O)N1CCC[C@H]1C(=O)N[C@@H](CO)C(=O)N[C@@H](CO)C(=O)N[C@H](C(=O)N[C@@H](CC(N)=O)C(=O)N[C@H](C(=O)NCC(=O)N[C@@H](CO)C(=O)N[C@@H](CC(N)=O)C(=O)N[C@H](C(=O)N1CCC[C@H]1C(N)=O)[C@@H](C)O)C(C)C)[C@@H](C)O, also called compound 14)",2.2,0.432
"{C20 diacid-γGlu}-KCNTATCATQRLAEFLRHSSPNFGAIPSSTNVGSETY-NH2 (disulfide 2-7; SMILES CC[C@H](C)[C@H](NC(=O)[C@H](C)NC(=O)CNC(=O)[C@H](Cc1ccccc1)NC(=O)[C@H](CC(N)=O)NC(=O)[C@@H]1CCCN1C(=O)[C@H](CO)NC(=O)[C@H](CO)NC(=O)[C@H](Cc1c[nH]cn1)NC(=O)[C@H](CCCNC(=N)N)NC(=O)[C@H](CC(C)C)NC(=O)[C@H](Cc1ccccc1)NC(=O)[C@H](CCC(=O)O)NC(=O)[C@H](C)NC(=O)[C@H](CC(C)C)NC(=O)[C@H](CCCNC(=N)N)NC(=O)[C@H](CCC(N)=O)NC(=O)[C@@H](NC(=O)[C@H](C)NC(=O)[C@@H]1CSSC[C@H](NC(=O)[C@H](CCCCN)NC(=O)CC[C@H](NC(=O)CCCCCCCCCCCCCCCCCCC(=O)O)C(=O)O)C(=O)N[C@@H](CC(N)=O)C(=O)N[C@@H]([C@@H](C)O)C(=O)N[C@@H](C)C(=O)N[C@@H]([C@@H](C)O)C(=O)N1)[C@@H](C)O)C(=O)N1CCC[C@H]1C(=O)N[C@@H](CO)C(=O)N[C@@H](CO)C(=O)N[C@H](C(=O)N[C@@H](CC(N)=O)C(=O)N[C@H](C(=O)NCC(=O)N[C@@H](CO)C(=O)N[C@@H](CCC(=O)O)C(=O)N[C@H](C(=O)N[C@@H](Cc1ccc(O)cc1)C(N)=O)[C@@H](C)O)C(C)C)[C@@H](C)O, also called compound 22)",12.3,9.73

# More lines, in order of falling IC50 [2], values ahead:
Ratio hCT/hAmylin binding [1],IC50 [2] [nM],Binder
56.5,43.4,"K([AEEA-AEEA-γGlu-C20 diacid])CNTATCATQRLANFLRHSSPNFGAIPSSTNVGSETY-NH2 (disulfide 2-7; N-terminus assumed; SMILES CC[C@H](C)[C@H](NC(=O)[C@H](C)NC(=O)CNC(=O)[C@H](Cc1ccccc1)NC(=O)[C@H](CC(N)=O)NC(=O)[C@@H]1CCCN1C(=O)[C@H](CO)NC(=O)[C@H](CO)NC(=O)[C@H](Cc1c[nH]cn1)NC(=O)[C@H](CCCNC(=N)N)NC(=O)[C@H](CC(C)C)NC(=O)[C@H](Cc1ccccc1)NC(=O)[C@H](CC(N)=O)NC(=O)[C@H](C)NC(=O)[C@H](CC(C)C)NC(=O)[C@H](CCCNC(=N)N)NC(=O)[C@H](CCC(N)=O)NC(=O)[C@@H](NC(=O)[C@H](C)NC(=O)[C@@H]1CSSC[C@H](NC(=O)[C@@H](N)CCCCNC(=O)COCCOCCNC(=O)COCCOCCNC(=O)CC[C@H](NC(=O)CCCCCCCCCCCCCCCCCCC(=O)O)C(=O)O)C(=O)N[C@@H](CC(N)=O)C(=O)N[C@@H]([C@@H](C)O)C(=O)N[C@@H](C)C(=O)N[C@@H]([C@@H](C)O)C(=O)N1)[C@@H](C)O)C(=O)N1CCC[C@H]1C(=O)N[C@@H](CO)C(=O)N[C@@H](CO)C(=O)N[C@H](C(=O)N[C@@H](CC(N)=O)C(=O)N[C@H](C(=O)NCC(=O)N[C@@H](CO)C(=O)N[C@@H](CCC(=O)O)C(=O)N[C@H](C(=O)N[C@@H](Cc1ccc(O)cc1)C(N)=O)[C@@H](C)O)C(C)C)[C@@H](C)O, also called compound 25)"
3.9,3.61,"{C20 diacid-γGlu}-KCNTATCATQRLAEFLRHSSPNFGAILPSTNVGSETY-NH2 (disulfide 2-7, also called compound 33)"
34.7,2.64,"K([AEEA-C20 diacid])CNTATCATQRLANFLRHSSPNFGAIPSSTNVGSNTY-NH2 (disulfide 2-7; N-terminus assumed; SMILES CC[C@H](C)[C@H](NC(=O)[C@H](C)NC(=O)CNC(=O)[C@H](Cc1ccccc1)NC(=O)[C@H](CC(N)=O)NC(=O)[C@@H]1CCCN1C(=O)[C@H](CO)NC(=O)[C@H](CO)NC(=O)[C@H](Cc1c[nH]cn1)NC(=O)[C@H](CCCNC(=N)N)NC(=O)[C@H](CC(C)C)NC(=O)[C@H](Cc1ccccc1)NC(=O)[C@H](CC(N)=O)NC(=O)[C@H](C)NC(=O)[C@H](CC(C)C)NC(=O)[C@H](CCCNC(=N)N)NC(=O)[C@H](CCC(N)=O)NC(=O)[C@@H](NC(=O)[C@H](C)NC(=O)[C@@H]1CSSC[C@H](NC(=O)[C@@H](N)CCCCNC(=O)COCCOCCNC(=O)CCCCCCCCCCCCCCCCCCC(=O)O)C(=O)N[C@@H](CC(N)=O)C(=O)N[C@@H]([C@@H](C)O)C(=O)N[C@@H](C)C(=O)N[C@@H]([C@@H](C)O)C(=O)N1)[C@@H](C)O)C(=O)N1CCC[C@H]1C(=O)N[C@@H](CO)C(=O)N[C@@H](CO)C(=O)N[C@H](C(=O)N[C@@H](CC(N)=O)C(=O)N[C@H](C(=O)NCC(=O)N[C@@H](CO)C(=O)N[C@@H](CC(N)=O)C(=O)N[C@H](C(=O)N[C@@H](Cc1ccc(O)cc1)C(N)=O)[C@@H](C)O)C(C)C)[C@@H](C)O, also called compound 43) [N^ε1-[2-[2-[2-(19-carboxynonadecanoylamino)ethoxy]ethoxy]acetyl]-[Arg17,Pro21,Pro27]-h-amylin]"
